Source: the supplement of paper PMC12783771
± gives the standard deviation of the averaged measurements.

B1: library; numbered along this chain (parent)
chain: MNIQIGELAKRTACPVVTIRFYEQEGLLPPPGRSRGNFRLYGEEHVERLQFIRHCRSLDMPLSDVRTLLSYRKRPDQDCGEVNMLLDEHIRQVESRIGALLELKHHLVELREACSGARPAQSCGILQGLSDCVCDTRGTTAHPSD

What was measured:
[1] = variants of: B1; assay: sfGFP reporter fluorescence (15 h) (µM FITC); higher = higher leak; conditions: library round: Round 0; ligand: none
Method in brief: (§1)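 Readout was endpoint sfGFP fluorescence, converted to µM FITC through standard curves. Reactions were 1 μL of BL21 Star (DE3) PANOx-SP extract with pPbrR-sfGFP reporter, 30 μg/mL GamS and linear PbrR templates normalized to 5 nM, containing 1 µM lead chloride, 30 µM zinc acetate or no metal. Incubation lasted 15 hr at 30 °C, with up to three biological replicates.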

[2] = variants of: B1; assay: sfGFP reporter fluorescence (15 h) (µM FITC); higher = stronger transcriptional activation; conditions: library round: Round 0
Method in brief: as §1

| Variant | sfGFP reporter fluorescence [1] | sfGFP reporter fluorescence ([2]; ligand: 1 µM Pb) | sfGFP reporter fluorescence ([2]; ligand: 30 µM Zn) |
| --- | --- | --- | --- |
| C114P | 0.0552 ± 0.0013 | 0.0563 ± 0.0013 | 0.05204 ± 0.00052 |
| C114Q | 0.0568 ± 0.001 | 0.05864 ± 0.00052 | 0.0533 ± 0.0018 |
| C114R | 0.0594 ± 0.001 | 0.06029 ± 0.00026 | 0.0564 ± 0.0015 |
| C114S | 0.05754 ± 0.00052 | 0.05809 ± 0.00026 | 0.0544 ± 0.0018 |
| C114T | 0.0583 ± 0.0015 | 0.05864 ± 0.00052 | 0.0544 ± 0.0039 |
| C114V | 0.0566 ± 0.00078 | 0.0555 ± 0.00078 | 0.05186 ± 0.00026 |
| C114W | 0.0586 ± 0.001 | 0.0592 ± 0.0013 | 0.05241 ± 0.00052 |
| C114Y | 0.0585 ± 0.0018 | 0.0586 | 0.0544 ± 0.0013 |
| S115A | 0.0599 ± 0.00078 | 0.0663 ± 0.0047 | 0.478 ± 0.14 |
| G116A | 0.0597 | 0.0581 ± 0.0023 | 0.18 ± 0.063 |
| R118A | 0.0676 ± 0.0018 | 0.0665 ± 0.00078 | 0.168 ± 0.026 |
| P119A | 0.05992 ± 0.00026 | 0.0629 ± 0.0029 | 0.477 ± 0.05 |
| Q121A | 0.0645 ± 0.001 | 0.0944 ± 0.0023 | 1.16 ± 0.19 |
| S122A | 0.06249 ± 0.00026 | 0.0762 ± 0.0015 | 0.687 ± 0.05 |
| C123A | 0.0575 ± 0.001 | 0.0553 | 0.0533 ± 0.00078 |
| C123D | 0.0577 ± 0.0039 | 0.0586 | 0.0564 ± 0.0031 |
| C123E | 0.0583 ± 0.001 | 0.0588 ± 0.00078 | 0.0557 ± 0.001 |
| C123F | 0.0564 ± 0.0015 | 0.0577 ± 0.00078 | 0.0528 ± 0.0015 |
| C123G | 0.0535 ± 0.001 | 0.0552 ± 0.0013 | 0.0502 ± 0.0015 |
| C123H | 0.0588 ± 0.0018 | 0.05901 ± 0.00052 | 0.0561 ± 0.0021 |
| C123I | 0.05479 ± 0.00026 | 0.0553 ± 0.001 | 0.0517 ± 0.0021 |
| C123K | 0.0592 ± 0.0039 | 0.0597 ± 0.001 | 0.0574 ± 0.0029 |
| C123L | 0.05589 ± 0.00026 | 0.0566 ± 0.0018 | 0.0542 ± 0.0021 |

| Variant | sfGFP reporter fluorescence [1] | sfGFP reporter fluorescence ([2]; ligand: 1 µM Pb) | sfGFP reporter fluorescence ([2]; ligand: 30 µM Zn) |
| --- | --- | --- | --- |
| C123M | 0.057 ± 0.0013 | 0.0577 ± 0.00078 | 0.0544 ± 0.0034 |
| C123N | 0.0599 ± 0.0018 | 0.0561 ± 0.0015 | 0.05498 ± 0.00052 |
| C123P | 0.0559 ± 0.00078 | 0.05772 ± 0.00026 | 0.0526 ± 0.00078 |
| C123Q | 0.0585 ± 0.00078 | 0.05809 ± 0.00026 | 0.0546 ± 0.0015 |
| C123R | 0.0599 ± 0.0023 | 0.061 ± 0.00078 | 0.0574 ± 0.0044 |
| C123S | 0.0575 ± 0.0021 | 0.0575 ± 0.001 | 0.0552 ± 0.0018 |
| C123T | 0.0586 ± 0.0021 | 0.0572 ± 0.0015 | 0.0568 ± 0.0036 |
| C123V | 0.05589 ± 0.00026 | 0.0579 ± 0.0015 | 0.0541 ± 0.0018 |
| C123W | 0.0575 ± 0.001 | 0.05919 ± 0.00026 | 0.0546 ± 0.0026 |
| C123Y | 0.0586 ± 0.0015 | 0.0579 | 0.0546 ± 0.0026 |
| G124A | 0.05919 ± 0.00026 | 0.064 ± 0.0013 | 0.222 ± 0.015 |
| I125A | 0.0572 ± 0.0042 | 0.0553 ± 0.0021 | 0.0585 ± 0.0023 |
| I125C | 0.0596 ± 0.00078 | 0.05901 ± 0.00052 | 0.0568 ± 0.0047 |
| I125D | 0.0585 ± 0.0013 | 0.0583 ± 0.0031 | 0.0559 ± 0.0039 |
| I125E | 0.0597 ± 0.0026 | 0.0581 ± 0.00078 | 0.0557 ± 0.0031 |
| I125F | 0.0553 ± 0.001 | 0.0579 ± 0.0021 | 0.05259 ± 0.00026 |
| I125G | 0.0546 | 0.0559 ± 0.00078 | 0.0504 ± 0.0029 |
| I125H | 0.0601 ± 0.0031 | 0.06011 ± 0.00052 | 0.057 ± 0.0023 |
| I125K | 0.0599 ± 0.0029 | 0.05864 ± 0.00052 | 0.0564 ± 0.0031 |
| I125L | 0.055 ± 0.001 | 0.05717 ± 0.00052 | 0.05552 ± 0.00026 |
| I125M | 0.05992 ± 0.00026 | 0.0579 ± 0.001 | 0.05571 ± 0.00052 |
| I125N | 0.0581 ± 0.00078 | 0.0581 ± 0.00078 | 0.055 ± 0.0015 |
| I125P | 0.0559 ± 0.00078 | 0.05791 ± 0.00052 | 0.05351 ± 0.00052 |

| Variant | sfGFP reporter fluorescence [1] | sfGFP reporter fluorescence ([2]; ligand: 1 µM Pb) | sfGFP reporter fluorescence ([2]; ligand: 30 µM Zn) |
| --- | --- | --- | --- |
| I125Q | 0.0588 ± 0.00078 | 0.0597 ± 0.0015 | 0.055 ± 0.0021 |
| I125R | 0.0608 ± 0.0026 | 0.0603 ± 0.0013 | 0.0575 ± 0.0021 |
| I125S | 0.0597 ± 0.0021 | 0.0574 ± 0.0013 | 0.0568 ± 0.0021 |
| I125T | 0.0585 ± 0.0023 | 0.0566 ± 0.0013 | 0.06414 ± 0.00052 |
| I125V | 0.0583 | 0.0627 | 0.183 ± 0.0036 |
| I125W | 0.0588 ± 0.0018 | 0.0596 ± 0.0013 | 0.0564 ± 0.0026 |
| I125Y | 0.059 ± 0.0021 | 0.0588 ± 0.0023 | 0.0552 ± 0.0029 |
| L126A | 0.0685 ± 0.001 | 0.0682 ± 0.0026 | 0.0691 ± 0.0039 |
| L126C | 0.059 ± 0.0036 | 0.0572 ± 0.001 | 0.0563 ± 0.0029 |
| L126D | 0.0597 ± 0.0021 | 0.0581 ± 0.00078 | 0.0544 ± 0.0029 |
| L126E | 0.0594 ± 0.0021 | 0.05772 ± 0.00026 | 0.0557 ± 0.001 |
| L126F | 0.05699 ± 0.00026 | 0.0583 ± 0.001 | 0.0586 ± 0.0021 |
| L126G | 0.0539 ± 0.0015 | 0.05571 ± 0.00052 | 0.0502 ± 0.0021 |
| L126H | 0.0603 ± 0.0018 | 0.0588 ± 0.00078 | 0.0552 ± 0.006 |
| L126I | 0.0542 ± 0.001 | 0.0568 ± 0.0015 | 0.238 ± 0.012 |
| L126K | 0.0597 ± 0.0031 | 0.05919 ± 0.00026 | 0.0564 ± 0.001 |
| L126M | 0.0594 ± 0.0015 | 0.0596 ± 0.0018 | 0.22 ± 0.032 |
| L126N | 0.05901 ± 0.00052 | 0.05882 ± 0.00026 | 0.05333 ± 0.00026 |
| L126P | 0.05552 ± 0.00026 | 0.0555 ± 0.0023 | 0.05113 ± 0.00026 |
| L126Q | 0.05901 ± 0.00052 | 0.0577 ± 0.0018 | 0.05534 ± 0.00052 |
| L126R | 0.0619 ± 0.0015 | 0.05992 ± 0.00026 | 0.0572 ± 0.0021 |
| L126S | 0.0592 ± 0.0018 | 0.0585 ± 0.00078 | 0.05443 ± 0.00026 |
| L126T | 0.0596 ± 0.0018 | 0.0579 ± 0.0036 | 0.057 ± 0.0029 |

| Variant | sfGFP reporter fluorescence [1] | sfGFP reporter fluorescence ([2]; ligand: 1 µM Pb) | sfGFP reporter fluorescence ([2]; ligand: 30 µM Zn) |
| --- | --- | --- | --- |
| L126V | 0.0555 ± 0.0013 | 0.0581 ± 0.00078 | 0.0586 |
| L126W | 0.0586 | 0.0594 ± 0.0026 | 0.0612 |
| L126Y | 0.0596 ± 0.0018 | 0.05937 ± 0.00052 | 0.0561 ± 0.0021 |
| Q127A | 0.0724 ± 0.0018 | 0.0793 ± 0.0049 | 0.299 ± 0.047 |
| G128A | 0.09694 ± 0.00026 | 0.211 ± 0.0065 | 2.53 ± 0.17 |
| G128C | 0.0629 ± 0.0018 | 0.0964 ± 0.0036 | 0.16 ± 0.008 |
| G128D | 0.0603 ± 0.0023 | 0.0607 ± 0.00078 | 0.108 ± 0.0029 |
| G128E | 0.0599 ± 0.00078 | 0.0713 ± 0.0013 | 0.535 ± 0.051 |
| G128F | 0.0671 ± 0.0047 | 0.199 ± 0.023 | 1.2 ± 0.12 |
| G128H | 0.0608 ± 0.0021 | 0.0848 ± 0.0034 | 0.25 ± 0.012 |
| G128I | 0.066 ± 0.0021 | 0.183 ± 0.015 | 1.68 ± 0.19 |
| G128K | 0.122 ± 0.0031 | 0.192 ± 0.007 | 3.05 ± 0.22 |
| G128L | 0.0715 ± 0.0031 | 0.203 ± 0.03 | 2.04 ± 0.21 |
| G128M | 0.105 ± 0.0062 | 0.311 ± 0.025 | 3.04 ± 0.38 |
| G128N | 0.0614 ± 0.0023 | 0.0704 ± 0.0042 | 0.875 ± 0.093 |
| G128P | 0.05498 ± 0.00052 | 0.0568 ± 0.001 | 0.0535 ± 0.001 |
| G128Q | 0.06982 ± 0.00026 | 0.117 ± 0.0026 | 2.05 ± 0.43 |
| G128R | 0.161 ± 0.007 | 0.316 ± 0.038 | 3.05 ± 0.31 |
| G128S | 0.0649 ± 0.0036 | 0.0902 ± 0.0083 | 1.3 ± 0.14 |
| G128T | 0.0647 ± 0.0018 | 0.0885 ± 0.014 | 1.21 ± 0.22 |
